Consider three molecules from patent publication US20210269476A1.

For assay [1], the target named is human IgG1 (coupled to the sensor chip) (human). Briefly: SPR, Biacore X-100, single cycle kinetics, human IgG1 coupled to the chip, scFv as analyte. For orientation: In SPR one partner is held on a chip, and binding of the other changes the refractive index at the surface.
Assay [2] deals with human serum-derived IgG polyclonal antibody (WAKO) (human). Briefly: affinity column breakthrough curve; scFv immobilized on HiTrap NHS-activated HP 1 mL, polyclonal human IgG 1 mg/mL at 1 mL/min.
Assay [3] has the same target. Nature of the assay: affinity column breakthrough curve; scFv (5.0 mg) immobilized on HiTrap NHS-activated HP 1 mL, polyclonal human IgG 1 mg/mL at 1 mL/min.

B1: R3-26 repCK+K (scFv)
scFv: QEQLVESGGGLVTPGGTLTLTCTVSGIDLSSYAMSWVRQVPGEGLEWIGIIGSGGGTAYANWARGRFTISRTSSTTVDLRMTSLTTEDTATYFCATDYGIYGYAYGHLWGPGTLVTVTSGGGGSGGGGSGGGGSELVMTQTASPVSAAVGGTVTINCQASQSISTALAWYQQRPGQPPRLLIYDASTLASGVSSRFSGSGSGTEFTLTISDLESADAATYYCQTYFGSDTDNAFGEGTEVEITGSAAAGGGGSKIE
In assay [1], B1 had a Kd of 1.6 nM, a koff of 9.1e-05 s⁻¹ and an on-rate constant (kon) of 56000 M⁻¹ s⁻¹. The [10% DBC (mg/mL) at flow rate of 1.0 mL/min]/[amount of protein immobilized on column (mg)] in assay [2] is 0.63 (mg/mL)/mg.

B2: R3-26 repCK+K3 (scFv)
scFv: QEQLVESGGGLVTPGGTLTLTCTVSGIDLSSYAMSWVRQVPGEGLEWIGIIGSGGGTAYANWARGRFTISRTSSTTVDLRMTSLTTEDTATYFCATDYGIYGYAYGHLWGPGTLVTVTSGGGGSGGGGSGGGGSELVMTQTASPVSAAVGGTVTINCQASQSISTALAWYQQRPGQPPRLLIYDASTLASGVSSRFSGSGSGTEFTLTISDLESADAATYYCQTYFGSDTDNAFGEGTEVEITGSAAAGGGGSKKKIE
In assay [1], B2 had a Kd of 1.7 nM, a koff of 0.0001 s⁻¹ and an on-rate constant (kon) of 61000 M⁻¹ s⁻¹. Moreover, the [10% DBC (mg/mL) at flow rate of 1.0 mL/min]/[amount of protein immobilized on column (mg)] in assay [3] is 1.26 (mg/mL)/mg.

B3: R3-26 repCK+K5 (scFv)
scFv: QEQLVESGGGLVTPGGTLTLTCTVSGIDLSSYAMSWVRQVPGEGLEWIGIIGSGGGTAYANWARGRFTISRTSSTTVDLRMTSLTTEDTATYFCATDYGIYGYAYGHLWGPGTLVTVTSGGGGSGGGGSGGGGSELVMTQTASPVSAAVGGTVTINCQASQSISTALAWYQQRPGQPPRLLIYDASTLASGVSSRFSGSGSGTEFTLTISDLESADAATYYCQTYFGSDTDNAFGEGTEVEITGSAAAGGGGSKKKKKIE
As to B3, in assay [1], the Kd stood at 2.4 nM, the dissociation rate constant (koff) came to 0.00017 s⁻¹ and the kon worked out at 70000 M⁻¹ s⁻¹. Further, the [10% DBC (mg/mL) at flow rate of 1.0 mL/min]/[amount of protein immobilized on column (mg)] in assay [3] was 1.4 (mg/mL)/mg.

As a reminder, the Kd is the constant that tells how readily two partners part at equilibrium. Lower therefore signals tighter binding. In general, koff refers to the first-order rate constant of dissociation. Read a high koff as a short-lived complex. A word on the kon: it is a measure of how fast the partners come together.
